{
  "source": "paper PMC10777205",
  "about": "“Identification of the p-coumaric acid biosynthetic gene cluster in Kutzneria albida: insights into the diazotization-dependent deamination pathway” (Beilstein Journal of Organic Chemistry, 2024)",
  "key": {"purified protein [1]": {"substrate": "NC(=O)C1=CN([C@@H]2O[C@H](COP(=O)(O)OP(=O)(O)OC[C@H]3O[C@@H](n4cnc5c(N)ncnc54)[C@H](OP(=O)(O)O)[C@@H]3O)[C@@H](O)[C@H]2O)C=CC1", "assay": "purified protein", "format": "biochemical, Streptomyces sp.", "details": "3-DAA made in situ by CmaA6 from 1.0 mM 3-AAA, pH 8.0, varied: cofactor"}, "purified protein [2]": {"substrate": "[N-]=[N+]=C1C=C(/C=C/C=C/C(=O)O)C=CC1=O", "assay": "purified protein", "format": "biochemical, Streptomyces sp.", "details": "800 µM NADPH, 3-DAA made in situ by CmaA6, 25-400 µM, pH 8.0"}},
  "data": [
    {"protein": "AvaA7 (Streptomyces sp.) (protein, recombinant) MRVLVAGATGVIGHPLVGALRARGHNVSALVRDASRAPEADRVVVADALDREAVLSAVSAARPEVVVHQLTALRLLRDDPPEAFAQTARLRTEGTAHLVEAARAAGARRLVAQSIAFAAAPQGPPVLDEDAPLYVDAPDPGWAATVRAVAELERLVASSDLAGLVLRYGTLYGPGTGYARDGGTALRVLAGKLPLPEGGAGVTSFLHVDDAVGAAVAAVESEATGCLHVTDDEPAPAAQWLPHYARTLGAPPPRTLPAALAPRLLGWFMTHQLTTARGAANDRARTALGWKPTHPSWRDGLGRE", "values": [
      {"measurement": "Km", "setting": "purified protein [1]", "value": "138 ± 10", "unit": "µM"},
      {"measurement": "kcat", "setting": "purified protein [1]", "value": "4.433 ± 0.0333", "unit": "s⁻¹"},
      {"measurement": "kcat/Km", "setting": "purified protein [1]", "value": 31700, "unit": "M⁻¹ s⁻¹"},
      {"measurement": "Km", "setting": "purified protein [2]", "value": "152 ± 31", "unit": "µM"},
      {"measurement": "kcat", "setting": "purified protein [2]", "value": "10.2 ± 0.917", "unit": "s⁻¹"},
      {"measurement": "kcat/Km", "setting": "purified protein [2]", "value": 66700, "unit": "M⁻¹ s⁻¹"}
    ]}
  ]
}
